Test results reported in publication PMC5089723, “Structural Insights into the Nucleotide-Binding Domains of the P1B-type ATPases HMA6 and HMA8 from Arabidopsis thaliana” (PLoS ONE, 2016).

Target: the molecule itself
Experiment: not stated; oligomeric state of the purified N/P domains and of their truncated fragments 'in solution'

B1: HMA6 nucleotide binding and phosphorylation domains (HMA6^N/P, residues 576-853) (domain or fragment, Arabidopsis thaliana, UniProt Q9SZC9 576-853, looked up)
chain: RGLLLRGGDILEKFSLVDTVVFDKTGTLTKGHPVVTEVIIPENPRHNLNDTWSEVEVLMLAAAVESNTTHPVGKAIVKAARARNCQTMKAEDGTFTEEPGSGAVAIVNNKRVTVGTLEWVKRHGATGNSLLALEEHEINNQSVVYIGVDNTLAAVIRFEDKVREDAAQVVENLTRQGIDVYMLSGDKRNAANYVASVVGINHERVIAGVKPAEKKNFINELQKNKKIVAMVGDGINDAAALASSNVGVAMGGGAGAASEVSPVVLMGNRLTQLLDAME
notes: also called N/P domain of HMA6; source: expressed and purified
- stoichiometry N: 2

B2: HMA8 nucleotide binding and phosphorylation domains (HMA8^N/P, residues 526-806) (domain or fragment, Arabidopsis thaliana, UniProt B9DFX7 526-806, looked up)
chain: RGYLIRGGDVLERLASIDCVALDKTGTLTEGRPVVSGVASLGYEEQEVLKMAAAVEKTATHPIAKAIVNEAESLNLKTPETRGQLTEPGFGTLAEIDGRFVAVGSLEWVSDRFLKKNDSSDMVKLESLLDHKLSNTSSTSRYSKTVVYVGREGEGIIGAIAISDCLRQDAEFTVARLQEKGIKTVLLSGDREGAVATVAKNVGIKSESTNYSLSPEKKFEFISNLQSSGHRVAMVGDGINDAPSLAQADVGIALKIEAQENAASNAASVILVRNKLSHVVD
notes: also called N/P domain of HMA8; source: expressed and purified
- stoichiometry N: 2
